67 sequences from the supplement of paper PMC10126150 can be followed below.

This data set concerns ATP. As to the kind of experiment: switch fluorescence ratio, 500 uM ATP over buffer (Cy3 cluster intensity, sum of 5 cycles each) (fold (ratio)); higher = stronger signal-on switching upon ATP binding; sequences stand for … in TCGTCGGCAGCGTCAGATGTGTATAAGAGACAGTTTTTTTTTTTTTTTTTTTTTTTTT…TC. The following applies: aptamer strand: ATP DNA aptamer (quencher-CACCTGGGGGAGTATTGCGGAGGAAGG + anchor), 100 nM annealed; ATP concentration: 500 uM. The method, boiled down: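 Per cluster, summed Cy3 intensity from the target cycles was divided by that from the buffer cycles to give the fluorescence ratio, then averaged per switch-domain sequence. Clusters outside 100-1000 RFU were excluded. The Cy3-labelled switching-strand clusters, on a modified Illumina MiSeq flow-cell, were annealed to 100 nM quencher-labelled ATP aptamer and imaged in selection buffer, then after 15 min with 500 uM ATP at 22 °C, for five cycles with NaOH stripping and re-annealing between them.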

± gives the standard deviation of the averaged measurements.
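Note: ATP exposure 15 min at 22 °C before imaging.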

As for TAGCCTGGAC, the switch fluorescence ratio was 1.1 ± 0.031.
The figure for TAGCCTTAGA is 0.983 ± 0.02; for TAGCGAAAAA it is 0.992 ± 0.016; for TAGCGCTCTA it is 0.999 ± 0.024.
As for TAGCGCTGGT, the switch fluorescence ratio amounted to 1.01 ± 0.02.
With TAGCGGCGGC, the switch fluorescence ratio was determined as 1.01 ± 0.016.
As for TAGCGGGTTT, the switch fluorescence ratio is 1.03 ± 0.023.
For TAGCGGTGTC, the switch fluorescence ratio was found to be 1.07 ± 0.021.
Turning to TAGCGGTTGG, the switch fluorescence ratio was found to be 1.022 ± 0.0053.
Regarding TAGCGTTTCC, the switch fluorescence ratio worked out at 1.097 ± 0.0047.
As for TAGCTCATTA, the switch fluorescence ratio came to 0.979 ± 0.019.
Turning to TAGCTGAAGT, the switch fluorescence ratio amounted to 0.975 ± 0.038.
As for TAGCTGTACA, the switch fluorescence ratio was 1.01 ± 0.015.
As to TAGCTTTCGA, the switch fluorescence ratio is 1.06 ± 0.031.
Turning to TAGGAAGTCG, the switch fluorescence ratio is 0.995 ± 0.047.
Consider TAGGACCTGT, for which the switch fluorescence ratio is 0.9849 ± 0.0073.
For the sequence TAGGACGGTG, the switch fluorescence ratio was found to be 0.992 ± 0.034.
As for TAGGACTCTC, the switch fluorescence ratio is 1.01 ± 0.02.
On to TAGGAGAAGT, for which the switch fluorescence ratio came to 0.991 ± 0.042.
The figure for TAGGAGAGCC is 1.03 ± 0.017; for TAGGAGATGA it is 1 ± 0.042; for TAGGAGGCTC it is 1.03 ± 0.014.
TAGGAGGGA: the switch fluorescence ratio worked out at 1 ± 0.024.
Next, TAGGAGTGCT: 0.9896 ± 0.0066.
In the case of TAGGCAGATG, the switch fluorescence ratio came to 1.01 ± 0.02.
Regarding TAGGCAGGCG, the switch fluorescence ratio is 1.01 ± 0.1.
TAGGCAGGGC: the switch fluorescence ratio turned out to be 1.04 ± 0.11.
With TAGGCATTTG, the switch fluorescence ratio worked out at 1.006 ± 0.0069.
Consider TAGGCCAAGT, for which the switch fluorescence ratio stood at 0.989 ± 0.026.
In the case of TAGGCCCTTG, the switch fluorescence ratio was determined as 1.01 ± 0.043.
Regarding TAGGCCGTTT, the switch fluorescence ratio is 1 ± 0.084.
Take TAGGCGGCAC: the switch fluorescence ratio was found to be 1.03 ± 0.046.
For the sequence TAGGCGGGGG, the switch fluorescence ratio is 1 ± 0.02.
Take TAGGCTACGG: the switch fluorescence ratio is 1.03 ± 0.014.
As to TAGGCTGATA, the switch fluorescence ratio came to 1.01 ± 0.029.
Regarding TAGGCTGGGC, the switch fluorescence ratio was determined as 0.9673 ± 0.0041.
Regarding TAGGCTGGGG, the switch fluorescence ratio worked out at 0.998 ± 0.023.
In the case of TAGGCTTTAG, the switch fluorescence ratio came to 1.01 ± 0.012.
The figure for TAGGGAAATC is 0.983 ± 0.013; for TAGGGATGGT it is 0.979 ± 0.022; for TAGGGATGTA it is 1.01 ± 0.016.
Next, TAGGGCAACG: 1.04 ± 0.025.
Consider TAGGGCACCC, for which the switch fluorescence ratio was 0.988 ± 0.058.
For the sequence TAGGGCAGAG, the switch fluorescence ratio is 0.994 ± 0.021.
Regarding TAGGGCCAGC, the switch fluorescence ratio was determined as 1.04 ± 0.033.
As for TAGGGCCCGG, the switch fluorescence ratio turned out to be 1.03 ± 0.077.
With TAGGGCGCCG, the switch fluorescence ratio was determined as 1.0192 ± 0.00067.
Next, TAGGGCTCAG: 0.9928 ± 0.0098; TAGGGCTGGG: 0.972 ± 0.048; TAGGGGAAGC: 0.989 ± 0.031.
As to TAGGGGAGAT, the switch fluorescence ratio was 1.027 ± 0.0098.
For TAGGGGAGGG, the switch fluorescence ratio amounted to 1.03 ± 0.041.
On to TAGGGGCACA, for which the switch fluorescence ratio came out at 1.01 ± 0.033.
Turning to TAGGGGGCTA, the switch fluorescence ratio came to 0.995 ± 0.027.
As for TAGGGGGCTG, the switch fluorescence ratio was found to be 1.01 ± 0.02.
Regarding TAGGGGGGAG, the switch fluorescence ratio was 0.981 ± 0.024.
Next, TAGGGGGGGC: 0.978 ± 0.022; TAGGGGGTAT: 1.02 ± 0.019; TAGGGGTA: 1.01 ± 0.021.
For TAGGGGTAGC, the switch fluorescence ratio was 0.985 ± 0.04.
With TAGGGGTGAG, the switch fluorescence ratio is 1.04 ± 0.021.
As for TAGGGGTGGC, the switch fluorescence ratio is 0.956 ± 0.099.
On to TAGGGTCACG, for which the switch fluorescence ratio worked out at 0.99721 ± 0.00082.
Next, TAGGGTCTCA: 1 ± 0.031.
TAGGGTGGG: the switch fluorescence ratio was 1.024 ± 0.0028.
As to TAGGGTGTGT, the switch fluorescence ratio amounted to 0.952 ± 0.016.
Next, TAGGGTTCAA: 0.989 ± 0.02.
